Test results as given in article PMC6642198 (Scientific Reports, 2019).

T1: KCTD1 (full-length, residues 1-257) (human), Q719H9
T1 chain: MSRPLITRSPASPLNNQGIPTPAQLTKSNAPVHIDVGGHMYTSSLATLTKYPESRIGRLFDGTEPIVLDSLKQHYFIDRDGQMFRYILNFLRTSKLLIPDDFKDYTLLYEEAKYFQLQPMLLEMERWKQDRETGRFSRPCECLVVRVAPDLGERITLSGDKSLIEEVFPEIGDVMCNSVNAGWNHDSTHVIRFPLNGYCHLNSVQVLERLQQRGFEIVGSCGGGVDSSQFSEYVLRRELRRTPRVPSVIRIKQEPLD


Legend:
[1] = molecular target: T1, KCTD1 (full-length, residues 1-257) …; assay: SEC; analytical size-exclusion chromatography, Superdex 200 10/30, Tris-HCl 20 mM pH 7.8, NaCl 100 mM, glycerol 5%, CHAPS 0.01%, DTT 4 mM; column calibrated with marker proteins; number of chains from apparent over theoretical monomer molecular weight; details: remark: other sources report otherwise
[2] = molecular target: the molecule itself; assay: as above

Binder | binding result [2] | further results
KCTD1 (full-length, residues 1-257), Q719H9 1-257 (natural protein) MSRPLITRSPASPLNNQGIPTPAQLTKSNAPVHIDVGGHMYTSSLATLTKYPESRIGRLFDGTEPIVLDSLKQHYFIDRDGQMFRYILNFLRTSKLLIPDDFKDYTLLYEEAKYFQLQPMLLEMERWKQDRETGRFSRPCECLVVRVAPDLGERITLSGDKSLIEEVFPEIGDVMCNSVNAGWNHDSTHVIRFPLNGYCHLNSVQVLERLQQRGFEIVGSCGGGVDSSQFSEYVLRRELRRTPRVPSVIRIKQEPLD |  | stoichiometry N [1]: 4.5
KCTD1 BTB domain (KCTD1^BTB, residues 1-135) (domain or fragment, human, UniProt Q719H9 1-135, looked up, KCTD1, pre-BTB region and BTB domain, residues 1-135; source: E. coli BL21(DE3), purified (His-trap, TEV digestion, Superdex 200); not shown: polyHis, N-terminal, cleaved) MSRPLITRSPASPLNNQGIPTPAQLTKSNAPVHIDVGGHMYTSSLATLTKYPESRIGRLFDGTEPIVLDSLKQHYFIDRDGQMFRYILNFLRTSKLLIPDDFKDYTLLYEEAKYFQLQPMLLEMERWKQDRETGR |  | stoichiometry N [2]: ~4.5
KCTD1 C-terminal domain (KCTD1^CTD, residues 134-235) (domain or fragment, human, UniProt Q719H9 134-235, looked up, KCTD1, C-terminal domain, residues 134-235; The sentences on expression host and on TEV removal of the tag list KCTD1, KCTD1^BTB and the point mutants but not KCTD1^CTD; source: recombinantly expressed (pETM11), purified (Superdex 200)) GRFSRPCECLVVRVAPDLGERITLSGDKSLIEEVFPEIGDVMCNSVNAGWNHDSTHVIRFPLNGYCHLNSVQVLERLQQRGFEIVGSCGGGVDSSQFSEYVL |  | stoichiometry N [2]: ~4.5
KCTD1^D69E (full-length KCTD1 with the SEN-causing mutation D69E) (natural protein, human, UniProt Q719H9 1-257, looked up, KCTD1, full-length protein, residues 1-257, disease-causing missense variant D69E; the mutation occurs in families with SEN syndrome; also called KCTD^D69E; source: E. coli BL21(DE3), purified (His-trap, TEV digestion, Superdex 200); not shown: polyHis, N-terminal, cleaved) MSRPLITRSPASPLNNQGIPTPAQLTKSNAPVHIDVGGHMYTSSLATLTKYPESRIGRLFDGTEPIVLESLKQHYFIDRDGQMFRYILNFLRTSKLLIPDDFKDYTLLYEEAKYFQLQPMLLEMERWKQDRETGRFSRPCECLVVRVAPDLGERITLSGDKSLIEEVFPEIGDVMCNSVNAGWNHDSTHVIRFPLNGYCHLNSVQVLERLQQRGFEIVGSCGGGVDSSQFSEYVLRRELRRTPRVPSVIRIKQEPLD | binds | 
KCTD1^G62D (full-length KCTD1 with the SEN-causing mutation G62D) (natural protein, human, UniProt Q719H9 1-257, looked up, KCTD1, full-length protein, residues 1-257, disease-causing missense variant G62D; the mutation occurs in families with SEN syndrome; One sentence of the modelling section prints Gly62Glu; everywhere else G62D; also called KCTD^G62D; source: E. coli BL21(DE3), purified (His-trap, TEV digestion, Superdex 200); not shown: polyHis, N-terminal, cleaved) MSRPLITRSPASPLNNQGIPTPAQLTKSNAPVHIDVGGHMYTSSLATLTKYPESRIGRLFDDTEPIVLDSLKQHYFIDRDGQMFRYILNFLRTSKLLIPDDFKDYTLLYEEAKYFQLQPMLLEMERWKQDRETGRFSRPCECLVVRVAPDLGERITLSGDKSLIEEVFPEIGDVMCNSVNAGWNHDSTHVIRFPLNGYCHLNSVQVLERLQQRGFEIVGSCGGGVDSSQFSEYVLRRELRRTPRVPSVIRIKQEPLD | binds | 
KCTD1^H33P (full-length KCTD1 with the SEN-causing mutation H33P) (natural protein, human, UniProt Q719H9 1-257, looked up, KCTD1, full-length protein, residues 1-257, disease-causing missense variant H33P; the mutation occurs in families with SEN syndrome; also called KCTD^H33P; source: E. coli BL21(DE3), purified (His-trap, TEV digestion, Superdex 200); not shown: polyHis, N-terminal, cleaved) MSRPLITRSPASPLNNQGIPTPAQLTKSNAPVPIDVGGHMYTSSLATLTKYPESRIGRLFDGTEPIVLDSLKQHYFIDRDGQMFRYILNFLRTSKLLIPDDFKDYTLLYEEAKYFQLQPMLLEMERWKQDRETGRFSRPCECLVVRVAPDLGERITLSGDKSLIEEVFPEIGDVMCNSVNAGWNHDSTHVIRFPLNGYCHLNSVQVLERLQQRGFEIVGSCGGGVDSSQFSEYVLRRELRRTPRVPSVIRIKQEPLD | binds | 
KCTD1^H74P (full-length KCTD1 with the SEN-causing mutation H74P) (natural protein, human, UniProt Q719H9 1-257, looked up, KCTD1, full-length protein, residues 1-257, disease-causing missense variant H74P; the mutation occurs in families with SEN syndrome; also called KCTD^H74P; source: E. coli BL21(DE3), purified (His-trap, TEV digestion, Superdex 200); not shown: polyHis, N-terminal, cleaved) MSRPLITRSPASPLNNQGIPTPAQLTKSNAPVHIDVGGHMYTSSLATLTKYPESRIGRLFDGTEPIVLDSLKQPYFIDRDGQMFRYILNFLRTSKLLIPDDFKDYTLLYEEAKYFQLQPMLLEMERWKQDRETGRFSRPCECLVVRVAPDLGERITLSGDKSLIEEVFPEIGDVMCNSVNAGWNHDSTHVIRFPLNGYCHLNSVQVLERLQQRGFEIVGSCGGGVDSSQFSEYVLRRELRRTPRVPSVIRIKQEPLD | binds | 
KCTD1^P20S (full-length KCTD1 with the SEN-causing mutation P20S) (natural protein, human, UniProt Q719H9 1-257, looked up, KCTD1, full-length protein, residues 1-257, disease-causing missense variant P20S; the mutation occurs in families with SEN syndrome; also called KCTD^P20S; source: E. coli BL21(DE3), purified (His-trap, TEV digestion, Superdex 200); not shown: polyHis, N-terminal, cleaved) MSRPLITRSPASPLNNQGISTPAQLTKSNAPVHIDVGGHMYTSSLATLTKYPESRIGRLFDGTEPIVLDSLKQHYFIDRDGQMFRYILNFLRTSKLLIPDDFKDYTLLYEEAKYFQLQPMLLEMERWKQDRETGRFSRPCECLVVRVAPDLGERITLSGDKSLIEEVFPEIGDVMCNSVNAGWNHDSTHVIRFPLNGYCHLNSVQVLERLQQRGFEIVGSCGGGVDSSQFSEYVLRRELRRTPRVPSVIRIKQEPLD | binds | 
